The record followed here is patent US20230406885A1, “CYCLIC PEPTIDES FOR TRAPPING INTERLEUKIN-1 BETA” (MERCK SHARP & DOHME LLC, priority 2022, published 2023).

The target of the assay is Recombinant human IL-1β (BioLegend 579404) (human, UniProt P01584 117-269). Briefly: cell-based or functional assay.

*1 amine or outer side, *2 acyl side, *3 side chain or, on linkers, in order; H or OH if unused. [ ]: non-standard residue; d: D form. TyrEtNAc = L-tyrosine O-ethyl acetamide, (S)-3-(4-(2-acetamidoethoxy)phenyl)-2-aminopropanoic acid, CC(=O)NCCOc1ccc(C[C@H](N[*:1])C(=O)[*:2])cc1; dDabMe3 = [(R)-3-amino-3-carboxypropyl]-trimethylazanium, C[N+](C)(C)CC[C@@H](N[*:1])C(=O)[*:2]; DapAc = (S)-3-acetamido-2-aminopropanoic acid, CC(=O)NC[C@H](N[*:1])C(=O)[*:2]; Phe(4-(4-Ac-piperazinyl)) = CC(=O)N1CCN(c2ccc(C[C@H](N)C(=O)O)cc2)CC1; Pro(trans-4-NH2) = O=C([C@@H]1C[C@@H](N[*:3])CN1[*:1])[*:2]; Bip(4'-COOH) = N[C@@H](Cc1ccc(-c2ccc(C(=O)O)cc2)cc1)C(=O)O; 1Nal(3S-Me) = C[C@@H](c1cccc2ccccc12)[C@H](N)C(=O)O; Ala(indolin-1-yl) = N[C@@H](CN1CCc2ccccc21)C(=O)O; Trp(6-Cl) = N[C@@H](Cc1c[nH]c2cc(Cl)ccc12)C(=O)O; Phe(4-COOH) = N[C@@H](Cc1ccc(C(=O)O)cc1)C(=O)O; Trp(6-F) = N[C@@H](Cc1c[nH]c2cc(F)ccc12)C(=O)O; Trp(7-aza) = N[C@@H](Cc1c[nH]c2ncccc12)C(=O)O; h3Pal(5-CN) = N#Cc1cncc(CC[C@H](N)C(=O)O)c1; hTyr = N[C@@H](CCc1ccc(O)cc1)C(=O)O; hCha = N[C@@H](CCC1CCCCC1)C(=O)O; dDab = NCC[C@@H](N)C(=O)O; Orn = NCCC[C@H](N)C(=O)O; dDap = NC[C@@H](N)C(=O)O; dNMeA = CN[C@H](C)C(=O)O; Dap = NC[C@H](N)C(=O)O

B1: SEQ ID NO: 212 (Example No. 212) (peptide)
peptide: cyclo([TyrEtNAc][Trp(6-F)][Phe(4-COOH)]G[Pro(trans-4-NH2)][1Nal(3S-Me)]D[dNMeA]G[Bip(4'-COOH)][Trp(7-aza)]S[dDab][hCha])
SMILES: CC(=O)NCCOc1ccc(C[C@@H]2NC(=O)[C@H](CCC3CCCCC3)NC(=O)[C@@H](CCN)NC(=O)[C@H](CO)NC(=O)[C@H](Cc3c[nH]c4ncccc34)NC(=O)[C@H](Cc3ccc(-c4ccc(C(=O)O)cc4)cc3)NC(=O)CNC(=O)[C@@H](C)N(C)C(=O)[C@H](CC(=O)O)NC(=O)[C@H]([C@@H](C)c3cccc4ccccc34)NC(=O)[C@@H]3C[C@@H](N)CN3C(=O)CNC(=O)[C@H](Cc3ccc(C(=O)O)cc3)NC(=O)[C@H](Cc3c[nH]c4cc(F)ccc34)NC2=O)cc1
On to B1, for which the “MRC5 IC50” value came out at 0.025 nM.

B2: SEQ ID NO: 207 (Example No. 207) (peptide)
peptide: cyclo([Phe(4-(4-Ac-piperazinyl))]W[Phe(4-COOH)]G[Pro(trans-4-NH2)][1Nal(3S-Me)]D[dNMeA]G[Bip(4'-COOH)]KL[dA][hCha])
SMILES: CC(=O)N1CCN(c2ccc(C[C@@H]3NC(=O)[C@H](CCC4CCCCC4)NC(=O)[C@@H](C)NC(=O)[C@H](CC(C)C)NC(=O)[C@H](CCCCN)NC(=O)[C@H](Cc4ccc(-c5ccc(C(=O)O)cc5)cc4)NC(=O)CNC(=O)[C@@H](C)N(C)C(=O)[C@H](CC(=O)O)NC(=O)[C@H]([C@@H](C)c4cccc5ccccc45)NC(=O)[C@@H]4C[C@@H](N)CN4C(=O)CNC(=O)[C@H](Cc4ccc(C(=O)O)cc4)NC(=O)[C@H](Cc4c[nH]c5ccccc45)NC3=O)cc2)CC1
Consider B2, for which the “MRC5 IC50” value was 0.011 nM.

B3: SEQ ID NO: 205 (Example No. 205) (peptide)
peptide: cyclo([Phe(4-(4-Ac-piperazinyl))]W[Phe(4-COOH)]G[Pro(trans-4-NH2)][1Nal(3S-Me)]D[dNMeA]G[Bip(4'-COOH)][DapAc]L[dDap][h3Pal(5-CN)])
SMILES: CC(=O)NC[C@@H]1NC(=O)[C@H](Cc2ccc(-c3ccc(C(=O)O)cc3)cc2)NC(=O)CNC(=O)[C@@H](C)N(C)C(=O)[C@H](CC(=O)O)NC(=O)[C@H]([C@@H](C)c2cccc3ccccc23)NC(=O)[C@@H]2C[C@@H](N)CN2C(=O)CNC(=O)[C@H](Cc2ccc(C(=O)O)cc2)NC(=O)[C@H](Cc2c[nH]c3ccccc23)NC(=O)[C@H](Cc2ccc(N3CCN(C(C)=O)CC3)cc2)NC(=O)[C@H](CCc2cncc(C#N)c2)NC(=O)[C@@H](CN)NC(=O)[C@H](CC(C)C)NC1=O
For the molecule B3, the “MRC5 IC50” value came out at 0.01 nM.

B4: SEQ ID NO: 208 (Example No. 208) (peptide)
peptide: cyclo([Phe(4-(4-Ac-piperazinyl))]W[Phe(4-COOH)]G[Pro(trans-4-NH2)][1Nal(3S-Me)]D[dNMeA]G[Bip(4'-COOH)][LysAc]L[dA][h3Pal(5-CN)])
In the case of B4, the “MRC5 IC50” value was determined as 0.018 nM.

B5: SEQ ID NO: 209 (Example No. 209) (peptide)
peptide: cyclo([Phe(4-(4-Ac-piperazinyl))]W[Phe(4-COOH)]G[Pro(trans-4-NH2)][1Nal(3S-Me)]D[dNMeA]G[Bip(4'-COOH)][Orn]L[dA][hCha])
SMILES: CC(=O)N1CCN(c2ccc(C[C@@H]3NC(=O)[C@H](CCC4CCCCC4)NC(=O)[C@@H](C)NC(=O)[C@H](CC(C)C)NC(=O)[C@H](CCCN)NC(=O)[C@H](Cc4ccc(-c5ccc(C(=O)O)cc5)cc4)NC(=O)CNC(=O)[C@@H](C)N(C)C(=O)[C@H](CC(=O)O)NC(=O)[C@H]([C@@H](C)c4cccc5ccccc45)NC(=O)[C@@H]4C[C@@H](N)CN4C(=O)CNC(=O)[C@H](Cc4ccc(C(=O)O)cc4)NC(=O)[C@H](Cc4c[nH]c5ccccc45)NC3=O)cc2)CC1
As to B5, the “MRC5 IC50” value was 0.009 nM.

B6: SEQ ID NO: 213 (Example No. 213) (peptide)
peptide: cyclo([TyrEtNAc][Trp(6-F)][Phe(4-COOH)]G[Pro(trans-4-NH2)][1Nal(3S-Me)]D[dNMeA]G[Bip(4'-COOH)][Trp(7-aza)]S[dDabMe3][hCha])
SMILES: CC(=O)NCCOc1ccc(C[C@@H]2NC(=O)[C@H](CCC3CCCCC3)NC(=O)[C@@H](CC[N+](C)(C)C)NC(=O)[C@H](CO)NC(=O)[C@H](Cc3c[nH]c4ncccc34)NC(=O)[C@H](Cc3ccc(-c4ccc(C(=O)O)cc4)cc3)NC(=O)CNC(=O)[C@@H](C)N(C)C(=O)[C@H](CC(=O)O)NC(=O)[C@H]([C@@H](C)c3cccc4ccccc34)NC(=O)[C@@H]3C[C@@H](N)CN3C(=O)CNC(=O)[C@H](Cc3ccc(C(=O)O)cc3)NC(=O)[C@H](Cc3c[nH]c4cc(F)ccc34)NC2=O)cc1
Turning to B6, the “MRC5 IC50” value came to 0.018 nM.

B7: SEQ ID NO: 214 (Example No. 214) (peptide)
peptide: cyclo([TyrEtNAc]W[Phe(4-COOH)]G[Pro(trans-4-NH2)][1Nal(3S-Me)]D[dNMeA]G[Bip(4'-COOH)][Trp(7-aza)]G[dDab][hCha])
SMILES: CC(=O)NCCOc1ccc(C[C@@H]2NC(=O)[C@H](CCC3CCCCC3)NC(=O)[C@@H](CCN)NC(=O)CNC(=O)[C@H](Cc3c[nH]c4ncccc34)NC(=O)[C@H](Cc3ccc(-c4ccc(C(=O)O)cc4)cc3)NC(=O)CNC(=O)[C@@H](C)N(C)C(=O)[C@H](CC(=O)O)NC(=O)[C@H]([C@@H](C)c3cccc4ccccc34)NC(=O)[C@@H]3C[C@@H](N)CN3C(=O)CNC(=O)[C@H](Cc3ccc(C(=O)O)cc3)NC(=O)[C@H](Cc3c[nH]c4ccccc34)NC2=O)cc1
On to B7, for which the “MRC5 IC50” value turned out to be 0.02 nM.

B8: SEQ ID NO: 215 (Example No. 215) (peptide)
peptide: cyclo([TyrEtNAc]W[Phe(4-COOH)]G[Pro(trans-4-NH2)][1Nal(3S-Me)]D[dNMeA]G[Bip(4'-COOH)][Trp(7-aza)]G[dDab][hTyr])
SMILES: CC(=O)NCCOc1ccc(C[C@@H]2NC(=O)[C@H](CCc3ccc(O)cc3)NC(=O)[C@@H](CCN)NC(=O)CNC(=O)[C@H](Cc3c[nH]c4ncccc34)NC(=O)[C@H](Cc3ccc(-c4ccc(C(=O)O)cc4)cc3)NC(=O)CNC(=O)[C@@H](C)N(C)C(=O)[C@H](CC(=O)O)NC(=O)[C@H]([C@@H](C)c3cccc4ccccc34)NC(=O)[C@@H]3C[C@@H](N)CN3C(=O)CNC(=O)[C@H](Cc3ccc(C(=O)O)cc3)NC(=O)[C@H](Cc3c[nH]c4ccccc34)NC2=O)cc1
Turning to B8, the “MRC5 IC50” value stood at 0.024 nM.

B9: SEQ ID NO: 206 (Example No. 206) (peptide)
peptide: cyclo([Phe(4-(4-Ac-piperazinyl))]W[Phe(4-COOH)]G[Pro(trans-4-NH2)][1Nal(3S-Me)]D[dNMeA]G[Bip(4'-COOH)][Dap]L[dA][hCha])
SMILES: CC(=O)N1CCN(c2ccc(C[C@@H]3NC(=O)[C@H](CCC4CCCCC4)NC(=O)[C@@H](C)NC(=O)[C@H](CC(C)C)NC(=O)[C@H](CN)NC(=O)[C@H](Cc4ccc(-c5ccc(C(=O)O)cc5)cc4)NC(=O)CNC(=O)[C@@H](C)N(C)C(=O)[C@H](CC(=O)O)NC(=O)[C@H]([C@@H](C)c4cccc5ccccc45)NC(=O)[C@@H]4C[C@@H](N)CN4C(=O)CNC(=O)[C@H](Cc4ccc(C(=O)O)cc4)NC(=O)[C@H](Cc4c[nH]c5ccccc45)NC3=O)cc2)CC1
For B9, the “MRC5 IC50” value was 0.015 nM.

B10: SEQ ID NO: 210 (Example No. 210) (peptide)
peptide: cyclo([TyrEtNAc][Trp(6-Cl)][Phe(4-COOH)]G[Pro(trans-4-NH2)][1Nal(3S-Me)]D[dNMeA]G[Bip(4'-COOH)][Trp(7-aza)]S[dDab][hCha])
SMILES: CC(=O)NCCOc1ccc(C[C@@H]2NC(=O)[C@H](CCC3CCCCC3)NC(=O)[C@@H](CCN)NC(=O)[C@H](CO)NC(=O)[C@H](Cc3c[nH]c4ncccc34)NC(=O)[C@H](Cc3ccc(-c4ccc(C(=O)O)cc4)cc3)NC(=O)CNC(=O)[C@@H](C)N(C)C(=O)[C@H](CC(=O)O)NC(=O)[C@H]([C@@H](C)c3cccc4ccccc34)NC(=O)[C@@H]3C[C@@H](N)CN3C(=O)CNC(=O)[C@H](Cc3ccc(C(=O)O)cc3)NC(=O)[C@H](Cc3c[nH]c4cc(Cl)ccc34)NC2=O)cc1
Regarding B10, the “MRC5 IC50” value came to 0.02 nM.

B11: SEQ ID NO: 211 (Example No. 211) (peptide)
peptide: cyclo([TyrEtNAc][Trp(6-F)][Phe(4-COOH)]G[Pro(trans-4-NH2)][1Nal(3S-Me)]D[dNMeA]G[Bip(4'-COOH)][Ala(indolin-1-yl)]G[dDab][hTyr])
SMILES: CC(=O)NCCOc1ccc(C[C@@H]2NC(=O)[C@H](CCc3ccc(O)cc3)NC(=O)[C@@H](CCN)NC(=O)CNC(=O)[C@H](CN3CCc4ccccc43)NC(=O)[C@H](Cc3ccc(-c4ccc(C(=O)O)cc4)cc3)NC(=O)CNC(=O)[C@@H](C)N(C)C(=O)[C@H](CC(=O)O)NC(=O)[C@H]([C@@H](C)c3cccc4ccccc34)NC(=O)[C@@H]3C[C@@H](N)CN3C(=O)CNC(=O)[C@H](Cc3ccc(C(=O)O)cc3)NC(=O)[C@H](Cc3c[nH]c4cc(F)ccc34)NC2=O)cc1
In the case of B11, the “MRC5 IC50” value is 0.027 nM.
